{"source": "patent US7285395B2", "about": "“Stearoyl-CoA desaturase 4 gene” (Wisconsin Alumni Research Foundation, priority 2004, dated 2007)", "molecules": {"B1": {"name": "leptin: recombinant mouse leptin (Amgen, Thousand Oaks, Calif.) (protein, UniProt P41160 22-167, looked up)", "Leptin": "VPIQKVQDDTKTLIKTIVTRINDISHTQSVSAKQRVTGLDFIPGLHPILSLSKMDQTLAVYQQVLTSLPSQNVLQIANDLENLRDLLHLLAFSKSCSLPQTSGLQKPESLDGVLEASLYSTEVVALSRLQGSLQDILQQLDVSPEC"}}, "type_in_all_cases": "in vivo, mouse", "key": {"mSCD4": {"system": "mSCD4", "test": "quantitative RT-PCR of mSCD4 mRNA in hearts of leptin-treated ob/ob mice", "details": "heart of leptin-treated ob/ob mice, 12 days", "procedure": "(§1) A, SCD activity: Microsomes were prepared from hearts of PBS-treated, ob/ob, ob/ob pair-fed (PF), and leptin-treated (ob/ob-Leptin) mice, and SCD enzyme activity was determined by measuring the incorporation of radioactivity in oleoyl-CoA using [1-^14C]stearoyl-CoA as a substrate. The reaction products were separated by TLC, and the radioactivity was quantitated. Each value represents the mean±S.E. (n=4). B, Levels of monounsaturated fatty acids in the hearts of ob/ob mice: Total fatty acids were extracted from heart of ob/ob mice treated with either leptin or PBS and wild type controls quantitated by GLC as described in the example below. *, p<0.05 versus wt-PBS; #,p<0.05 versus ob/ob-PBS. C, Total RNA was prepared from hearts of PBS or leptin-treated ob/ob mice and used to measure SCD1, SCD2, and SCD4 mRNA levels by quantitative RT-PCR analysis. The fold change relative to that of wild type was calculated after correction for the levels of cyclophilin used as a standard. Each value represents the mean±S.E. (n=4).\n(§2) Subcutaneous Leptin Treatment—ob/ob mice were individually caged and allowed to acclimate for a number of days prior to the start of the experiment. […] Body mass and food intake were measured daily. […]"}, "mSCD1": {"system": "mSCD1", "test": "quantitative RT-PCR of mSCD1 mRNA in hearts of leptin-treated ob/ob mice", "details": "heart of leptin-treated ob/ob mice, 12 days", "procedure": "as §1, §2"}, "ob/ob mice": {"system": "ob/ob mice", "test": "food intake and body weight of ob/ob mice under subcutaneous leptin treatment", "details": "leptin 200 ng/h subcutaneous miniosmotic pump", "procedure": "Subcutaneous Leptin Treatment—ob/ob mice were individually caged and allowed to acclimate for a number of days prior to the start of the experiment. The mice were treated with 200 ng/h of recombinant mouse leptin (Amgen, Thousand Oaks, Calif.) […] phosphate-buffered saline (PBS) for 12 days using subcutaneously placed Alzet miniosmotic pumps model 1002 (AlZa Co., Palo Alto, Calif.) as described in Soukas, A. et al. (2000) Genes Dev. 14, 963-980, which is herein incorporated by reference in its entirety. As an additional control, a group of mice referred to as pair-fed was treated with PBS and given the same amount of food to eat as leptin-treated mice voluntarily consumed. All of the data presented were generated from this or a similar time course where mice were either treated with PBS or leptin for 12 days. Body mass and food intake were measured daily.\nob/ob mice have a mutation in the leptin gene and are a model of obesity, insulin resistance, and diabetes. […] We analyzed the mRNA level of the SCD4 isoform in the hearts of leptin-deficient ob/ob mice and ob/ob mice treated with either PBS or leptin. As an additional control, RNA isolated from saline-treated ob/ob mice that were pair-fed to the leptin treated group for 12 days was also analyzed. […] To determine which SCD isoform(s) accounted for these effects, we measured RNA levels of mSCD1, mSCD2, and mSCD4. […]"}, "mSCD2": {"system": "mSCD2", "test": "quantitative RT-PCR of mSCD2 mRNA in hearts of leptin-treated ob/ob mice", "details": "heart of leptin-treated ob/ob mice, 12 days", "procedure": "as §1, §2"}}}
{"molecule": "B1", "values": [{"measurement": "decrease of SCD4 mRNA levels", "setting": "mSCD4", "value": "greater than 75%"}, {"measurement": "expression of mSCD1 isoform", "setting": "mSCD1", "value": "unchanged"}, {"measurement": "food intake", "setting": "ob/ob mice; after 12 days of treatment", "value": "1.2 ± 0.1", "unit": "g"}, {"measurement": "loss of initial weight", "setting": "ob/ob mice; end of 12-day treatment", "value": "34±0.8", "unit": "%"}, {"measurement": "expression of mSCD2 isoform", "setting": "mSCD2", "value": "unchanged"}]}
